Laboratory results from patent US7034007.

Key:
[1] = molecular target: B2 bradykinin receptor (rabbit airway smooth muscle membranes) (rabbit) (UniProt Q28642); experiment: radioligand binding, airway smooth muscle membranes of allergic rabbits treated with A1MM1 mismatch control oligo, 2 mg total
[2] = molecular target: B2 bradykinin receptor (rabbit airway smooth muscle membranes) (rabbit) (UniProt Q28642); experiment: radioligand binding, airway smooth muscle membranes of allergic rabbits treated with B2MM mismatch oligo, 0.2 mg total
[3] = molecular target: B2 bradykinin receptor (rabbit airway smooth muscle membranes) (rabbit) (UniProt Q28642); experiment: radioligand binding, airway smooth muscle membranes of allergic rabbits treated with B2A bradykinin receptor antisense oligo, 2 mg total
[4] = molecular target: B2 bradykinin receptor (rabbit airway smooth muscle membranes) (rabbit) (UniProt Q28642); experiment: radioligand binding, airway smooth muscle membranes of allergic rabbits treated with adenosine A1 receptor antisense oligo, 20 mg total
[5] = molecular target: B2 bradykinin receptor (rabbit airway smooth muscle membranes) (rabbit) (UniProt Q28642); experiment: radioligand binding, airway smooth muscle membranes of allergic rabbits treated with B2MM mismatch oligo, 2 mg total
[6] = molecular target: B2 bradykinin receptor (rabbit airway smooth muscle membranes) (rabbit) (UniProt Q28642); experiment: radioligand binding, airway smooth muscle membranes of allergic rabbits treated with adenosine A1 receptor antisense oligo, 2 mg total
[7] = molecular target: B2 bradykinin receptor (rabbit airway smooth muscle membranes) (rabbit) (UniProt Q28642); experiment: radioligand binding, airway smooth muscle membranes of allergic rabbits treated with A1MM1 mismatch control oligo, 20 mg total
[8] = molecular target: B2 bradykinin receptor (rabbit airway smooth muscle membranes) (rabbit) (UniProt Q28642); experiment: radioligand binding, airway smooth muscle membranes of allergic rabbits treated with adenosine A1 receptor antisense oligo, 0.2 mg total
[9] = molecular target: B2 bradykinin receptor (rabbit airway smooth muscle membranes) (rabbit) (UniProt Q28642); experiment: radioligand binding, airway smooth muscle membranes of allergic rabbits treated with B2A bradykinin receptor antisense oligo, 20 mg total
[10] = molecular target: B2 bradykinin receptor (rabbit airway smooth muscle membranes) (rabbit) (UniProt Q28642); experiment: radioligand binding, airway smooth muscle membranes of allergic rabbits treated with B2MM mismatch oligo, 20 mg total
[11] = molecular target: B2 bradykinin receptor (rabbit airway smooth muscle membranes) (rabbit) (UniProt Q28642); experiment: radioligand binding, airway smooth muscle membranes of allergic rabbits treated with B2A bradykinin receptor antisense oligo, 0.2 mg total
[12] = molecular target: B2 bradykinin receptor (rabbit airway smooth muscle membranes) (rabbit) (UniProt Q28642); experiment: radioligand binding, airway smooth muscle membranes of saline-treated control allergic rabbits

UniProt Q28642, sequence (Q28642 whole entry): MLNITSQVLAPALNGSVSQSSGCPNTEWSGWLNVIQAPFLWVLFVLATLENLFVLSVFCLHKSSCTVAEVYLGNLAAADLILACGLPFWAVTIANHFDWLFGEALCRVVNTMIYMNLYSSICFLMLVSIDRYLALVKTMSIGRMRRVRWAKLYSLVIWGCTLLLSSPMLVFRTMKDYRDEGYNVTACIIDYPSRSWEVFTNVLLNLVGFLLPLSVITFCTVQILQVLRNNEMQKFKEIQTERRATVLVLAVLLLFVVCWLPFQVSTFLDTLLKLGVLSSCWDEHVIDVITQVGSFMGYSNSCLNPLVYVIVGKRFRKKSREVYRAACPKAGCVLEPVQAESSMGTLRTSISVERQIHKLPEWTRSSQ

Substance: [3H]NPC 17731 (peptide)
- Bmax [1]: 14.6 fmol
- Kd [1]: 380 pM
- Bmax [2]: 15.1 fmol
- Kd [2]: 360 pM
- Bmax [3]: 11.9 fmol
- Kd [3]: 340 pM
- Bmax [4]: 14.8 fmol
- Kd [4]: 390 pM
- Bmax [5]: 14.8 fmol
- Kd [5]: 370 pM
- Bmax [6]: 15.5 fmol
- Kd [6]: 410 pM
- Bmax [7]: 14 fmol
- Kd [7]: 350 pM
- Bmax [8]: 15 fmol
- Kd [8]: 340 pM
- Bmax [9]: 8.7 fmol
- Kd [9]: 380 pM
- Bmax [10]: 14 fmol
- Kd [10]: 410 pM
- Bmax [11]: 15.1 fmol
- Kd [11]: 350 pM
- Bmax [12]: 14.2 fmol
- Kd [12]: 390 pM
